Measurements from article PMC12544700, “Identification of a Small Secretoneurin Derivative That Inhibits CaMKIIδ Activity” (Journal of Cellular and Molecular Medicine, 2025).

What was measured:
CaMKIIδ (Homo sapiens) = CaMKIIδ (Homo sapiens) (UniProt Q13557); details: cited from earlier work
[1] = biological target: biotinylated SN‐db‐short [SN (7–26, L17F, V20F)] (human); assay: SPR; Biacore X100, room temperature; biotin‐ahx‐SN‐db‐short immobilised on a streptavidin chip (58 RU); His‐CaMKIIδ‐T287D 0.06–1 μM injected, single‐cycle; HEPES running buffer with 2.5 mM Ca2+; 1:1 Langmuir fit; average of three experiments

Sequence of Secretoneurin (P13521 182-214): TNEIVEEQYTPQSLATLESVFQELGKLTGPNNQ
Sequence of CaMKIIδ (Homo sapiens) (Q13557 2-499, stated change not applied): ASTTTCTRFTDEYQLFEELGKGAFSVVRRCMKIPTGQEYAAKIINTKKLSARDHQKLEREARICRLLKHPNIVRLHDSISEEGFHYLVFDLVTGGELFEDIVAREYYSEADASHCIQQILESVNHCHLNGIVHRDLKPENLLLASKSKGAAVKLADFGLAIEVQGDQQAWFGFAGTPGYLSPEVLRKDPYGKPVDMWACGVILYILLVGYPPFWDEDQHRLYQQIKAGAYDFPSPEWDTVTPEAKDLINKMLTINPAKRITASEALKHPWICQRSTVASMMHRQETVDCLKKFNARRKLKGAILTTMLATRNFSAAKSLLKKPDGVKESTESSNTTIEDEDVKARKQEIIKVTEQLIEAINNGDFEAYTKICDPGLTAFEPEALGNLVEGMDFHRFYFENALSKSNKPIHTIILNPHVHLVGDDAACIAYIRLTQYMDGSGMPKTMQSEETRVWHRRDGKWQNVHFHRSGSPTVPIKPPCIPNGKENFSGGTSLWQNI

| Kd [1] [nM] | koff [1] [s⁻¹] | kon [1] [M⁻¹ s⁻¹] | Substance | Kd (CaMKIIδ (Homo sapiens)) [nM] |
| --- | --- | --- | --- | --- |
| – | – | – | Secretoneurin (from UniProt P13521) | 80 |
| 68 | 0.00057 | 14000 | recombinant His‐CaMKIIδ‐T287D (species not named for the experiment) (from UniProt P15791 1-533) (enzyme) | – |
